Values of other authors as cited in PMC5803174.

What was measured:
[1] = target: beta-cardiac myosin proximal S2 (Homo sapiens) (UniProt P12883)
[2] = target: beta-cardiac myosin short S1 (Homo sapiens) (UniProt P12883)

Row | Kd [1] | Kd [2] | Substance
1 | 5 µM |  | MyBP-C C1-C2 (from UniProt Q14896)
2 |  | 17.5 µM | cardiac MyBP-C (from UniProt Q14896)
